This experiment deals with envelope protein of DENV type 2 (DENV2), strain NGC M29095 (dengue virus type 2 (strain NGC)) (UniProt P14340). Nature of the experiment: cell-based or functional assay.

On to “4G2 antibodies against the envelope protein of Flavivirus (antibody)”, for which the fold of infection enhancement of DENV2 in K562 cells (ADE assay) came to 60 fold.

Source of the values: patent US20190248875A1.
